According to paper PMC6210165, “Structure-Based Engineering of Phanerochaete chrysosporium Alcohol Oxidase for Enhanced Oxidative Power toward Glycerol” (Biochemistry, 2018):

What was measured:
Conditions in all cases: 50 mM potassium phosphate pH 7.5, 25 °C, co-substrate O2, fit errors ≤11%
purified protein = substrate: CCO; assay: purified protein
[1] = substrate: CCCO; assay: HRP-coupled H2O2 assay, steady-state kinetics; format: biochemical, Phanerodontia chrysosporium
Source text: (§1) HRP-coupled H2O2 assay, steady-state kinetics on PcAOX (His-SUMO-PcAOX)

[2] = substrate: CO; assay: HRP-coupled H2O2 assay, steady-state kinetics; format: biochemical, Phanerodontia chrysosporium
Source text: as §1

Protein	Km (purified protein) [mM]	kcat (purified protein) [s⁻¹]	kcat/Km (purified protein) [M⁻¹ s⁻¹]	Km [1] [mM]	kcat [1] [s⁻¹]	kcat/Km [1] [M⁻¹ s⁻¹]	Km [2] [mM]	kcat [2] [s⁻¹]	kcat/Km [2] [M⁻¹ s⁻¹]
PcAOX (His-SUMO-PcAOX) (Phanerodontia chrysosporium) (protein, codon-optimized, E. coli BL21(DE3); N-terminal His-SUMO fusion kept for all kinetics, tag cleaved for crystals; homo-octamer with FAD; residues 2-645 seen in structure) MGHPEEVDVIVCGGGPAGCVVAGRLAYADPTLKVMLIEGGANNRDDPWVYRPGIYVRNMQRNGINDKATFYTDTMASSYLRGRRSIVPCANILGGGSSINFQMYTRASASDWDDFKTEGWTCKDLLPLMKRLENYQKPCNNDTHGYDGPIAISNGGQIMPVAQDFLRAAHAIGVPYSDDIQDLTTAHGAEIWAKYINRHTGRRSDAATAYVHSVMDVQDNLFLRCNARVSRVLFDDNNKAVGVAYVPSRNRTHGGKLHETIVKARKMVVLSSGTLGTPQILERSGVGNGELLRQLGIKIVSDLPGVGEQYQDHYTTLSIYRVSNESITTDDFLRGVKDVQRELFTEWEVSPEKARLSSNAIDAGFKIRPTEEELKEMGPEFNELWNRYFKDKPDKPVMFGSIVAGAYADHTLLPPGKYITMFQYLEYPASRGKIHIKSQNPYVEPFFDSGFMNNKADFAPIRWSYKKTREVARRMDAFRGELTSHHPRFHPASPAACKDIDIETAKQIYPDGLTVGIHMGSWHQPSEPYKHDKVIEDIPYTEEDDKAIDDWVADHVETTWHSLGTCAMKPREQGGVVDKRLNVYGTQNLKCVDLSICPDNLGTNTYSSALLVGEKGADLIAEELGLKIKTPHAPVPHAPVPTGRPATQQVR	15	19	1300	45	11	240	2	18	9000
PcAOX (His-SUMO-PcAOX) (Phanerodontia chrysosporium; F101N) (protein, codon-optimized, E. coli BL21(DE3); N-terminal His-SUMO fusion kept for all kinetics, tag cleaved for crystals; homo-octamer with FAD; residues 2-645 seen in structure) MGHPEEVDVIVCGGGPAGCVVAGRLAYADPTLKVMLIEGGANNRDDPWVYRPGIYVRNMQRNGINDKATFYTDTMASSYLRGRRSIVPCANILGGGSSINNQMYTRASASDWDDFKTEGWTCKDLLPLMKRLENYQKPCNNDTHGYDGPIAISNGGQIMPVAQDFLRAAHAIGVPYSDDIQDLTTAHGAEIWAKYINRHTGRRSDAATAYVHSVMDVQDNLFLRCNARVSRVLFDDNNKAVGVAYVPSRNRTHGGKLHETIVKARKMVVLSSGTLGTPQILERSGVGNGELLRQLGIKIVSDLPGVGEQYQDHYTTLSIYRVSNESITTDDFLRGVKDVQRELFTEWEVSPEKARLSSNAIDAGFKIRPTEEELKEMGPEFNELWNRYFKDKPDKPVMFGSIVAGAYADHTLLPPGKYITMFQYLEYPASRGKIHIKSQNPYVEPFFDSGFMNNKADFAPIRWSYKKTREVARRMDAFRGELTSHHPRFHPASPAACKDIDIETAKQIYPDGLTVGIHMGSWHQPSEPYKHDKVIEDIPYTEEDDKAIDDWVADHVETTWHSLGTCAMKPREQGGVVDKRLNVYGTQNLKCVDLSICPDNLGTNTYSSALLVGEKGADLIAEELGLKIKTPHAPVPHAPVPTGRPATQQVR	11	10	910	11	12	1100	14	10	710
PcAOX (His-SUMO-PcAOX) (Phanerodontia chrysosporium; F101S) (protein, codon-optimized, E. coli BL21(DE3); N-terminal His-SUMO fusion kept for all kinetics, tag cleaved for crystals; homo-octamer with FAD; residues 2-645 seen in structure) MGHPEEVDVIVCGGGPAGCVVAGRLAYADPTLKVMLIEGGANNRDDPWVYRPGIYVRNMQRNGINDKATFYTDTMASSYLRGRRSIVPCANILGGGSSINSQMYTRASASDWDDFKTEGWTCKDLLPLMKRLENYQKPCNNDTHGYDGPIAISNGGQIMPVAQDFLRAAHAIGVPYSDDIQDLTTAHGAEIWAKYINRHTGRRSDAATAYVHSVMDVQDNLFLRCNARVSRVLFDDNNKAVGVAYVPSRNRTHGGKLHETIVKARKMVVLSSGTLGTPQILERSGVGNGELLRQLGIKIVSDLPGVGEQYQDHYTTLSIYRVSNESITTDDFLRGVKDVQRELFTEWEVSPEKARLSSNAIDAGFKIRPTEEELKEMGPEFNELWNRYFKDKPDKPVMFGSIVAGAYADHTLLPPGKYITMFQYLEYPASRGKIHIKSQNPYVEPFFDSGFMNNKADFAPIRWSYKKTREVARRMDAFRGELTSHHPRFHPASPAACKDIDIETAKQIYPDGLTVGIHMGSWHQPSEPYKHDKVIEDIPYTEEDDKAIDDWVADHVETTWHSLGTCAMKPREQGGVVDKRLNVYGTQNLKCVDLSICPDNLGTNTYSSALLVGEKGADLIAEELGLKIKTPHAPVPHAPVPTGRPATQQVR	1	5	5000	4	7	1800	2	18	9000
